Reference: the nanobody polyreactivity screen of Harvey et al. (2022)

Assay: yeast display, Sf9 membrane polyspecificity reagent, FACS + sequencing; frameworks hold sequencing errors
Method in brief: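 A nanobody's polyreactivity label depends on the gate it was sorted from. Yeast display cells were stained with 10% biotinylated, detergent-solubilized Sf9 membrane reagent for 1 hour at 4 °C, enriched on streptavidin microbeads and sorted by FACS. The low and high (top ~1%) gates were set on anti-HA fluorescence for expression and streptavidin fluorescence for reagent binding.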

Sequence	polyreactivity (PSR sort gate)
QVQLVESGGGLVQAGGSLRLSCAASGRTLSHYAMGWYRQAPGKERELVAAITRSGGSTYYADSVKGRFTISRDYAKNTVYLQMNSLKPEDTAVYYCNKTLYTTYDYWGQGTQVTVSS	low polyreactivity
QVQLVESGGGLVQAGGSLRLSCAASGSIFYRYAMGWYRQAPGKERELVAAIRWSGGSTYYADSVKGRFTISRDNAKNTVYLQMNSQKPEDTAVYYCATEVSYGGYWSWYGYWGQGTQVTVSS	low polyreactivity
QVQLVESGGGLVQAGGSLRLSCAASGSTFYVNTMGWYRQAPGKERELVATITASDGSTYADSVKGRFTISRDNAKNTVYLQMNSLKPDDTAVYYCNADTRTQGPYSAPYYREMNYWGQGTQVTVSS	low polyreactivity
QVQLVESGGGLVQAGGSLRLSCAASGFIFWYYAMGWYRQAPGKERELVAAITSRGGSTYYADSVKGRFTISSDNAKNTDYLQMNSLKPEDTAVYYCAAKFPSRFYSFVQYYYWGQGTQVTVSS	high polyreactivity
QVQLVESGGGLVQAGGSLRLSCAASGNTINVNTMGWYRQAPGKERELVAAISKRGGSTYYADSVKGRFTISRDNAKNTVYLQMNSLKPEDTAVYYCAKQVSLPRYHYGSAPYGYWGQGTQVTVSS	high polyreactivity
QVQLVESGGGLFQAGGSLRLSCAASGITFYYYTMGWYRQAPGKERELVAAISTRGGRTYYADSVKGRFTISRDNAKNTVYLQMNSLKPEDTAVYYCATYQSGVYASKRRLDYWGQGTQVTVSS	high polyreactivity
QVQLVESGGGLVQAGGSLRLSCAASGLIFGFYAMGWYRQAPGKEWELVAAINSGGITYYADSVKGRFTISRDNAKNTVYLQMNSLKPEDTSVYYCAAVHSRRARYDYWGQGTQVTVSS	low polyreactivity
QVQLVESGGGLVQAGGSLRLSCAASGRIFQKYAMGWYRQAPGKERELVAAISSGDSTYADSVKGRFTISRDNAKNTVYLQMNSLKPEDTAVYYCAVDLYDPWWYSYIGEYEYWGQGTQVTVSS	low polyreactivity
QVQLVESGGGLVQAGGSLRLSCAASGIIFRPYAMGWYRQAPGKERELVAAISRGGRTKYADSVKGRFTISRDNAKNTVYLQMNSLKPEDTAVYYCAAQFRFTRLVGVAAEYDYGGQGTQVTVSS	low polyreactivity
QVQLVESGGGLVQAGGSLRLSCAASGRIFNGYPIGWYIQAPGKEREFVATISRSGGCTYYADSVKGRFTISRDNAKNTVYLQMISLKPEDTAVYYCAKTYPAKWEYDYWGQGTQVTVSS	low polyreactivity
QVQLVESGGGLVQAGGSLRLSCAASGSTFLDNAMGWYRQAPGKERELVAVITASDTNTNYADSVKGRFTISRDNAKNTVYLQMNRLKPEDTAVYYCNADATYTSYDYWGQGTQVTVSS	low polyreactivity
QVQLVESGGGLVQAGGSLRIICAASGSIFTYNSMGWYREAPGKERELVAAISASGGRTYYADSVKGRFTISRDNAKNTVYLQMNSLKPEDTAVYYCNVLHRSDSGYYYRYDYWGQGTQVTVSS	high polyreactivity
QVQLVESGGGLVQAGGSRRLSCAASGRTFYLYAMGWYIQARGQERELVAANTTSGGSTYYADSVKGRFTISRDKAKNTVYLQMHSLKPEDTAVYYCNKDLSTTKFDDWGQGTQVTVSS	low polyreactivity
QVQLVESGGGLVQAGGSLRLSCAASGSISDIYAMGWYRQAPGKERELVASISSGGITNYADSVKGRFTISRDNAKNTVYLQMNSLKPEDTAVYYCAKDRYPISFFYQMEYWGQGTQVTVSS	low polyreactivity
QVQLVESGGGIVQAGRSLRLSCAASGFTFYWYAMGWYRQAPGKERELVAAISWSGGSTYYADSVKGRFTISRDNETNTVYLQMYSLKPEDTAVYYCAADNYFFGDEDYWGQGTQVTVSS	high polyreactivity
QVQLVESGGGLVQAGGSLRLSCAASGFIFGVYAMGWYRQAPGKERELVARITYGGGSTYYADSVKGRFTISRDNAKNTVYLQMNSLKPEDTAVYYCAAASWSYPYYYWGQGTQVTVSS	high polyreactivity
QVQLVESGGGLVQAGGSLRLSCAASGSTLYPYAMGWYRQAPGKERELVAVITKSGGRTYYADSVKGRFTISRDNAKNTVYLQMNSLKPEDTAVYYCAAKSTYGRLGGDSWGQGTQVTVSS	high polyreactivity
QVQLVESGGGLVQAGGSLRLSCADSGRTLGVYAMRWYRQAPGKERELVASISFSGGRTYYADSVKGRFTISRDNAKNTVYLQMNSLKPEDTAVYYCAAGGRVRYQTKYRYGYDYWGQGTQVTVSS	low polyreactivity
QVQLVESVGGLVQAGGSLRLICAASGFTFRRNAIGWYRQAPGKERELVAAITRSGGITYYADSVKGRFTISRDNAKNTVYLQMNSLKPEDTAVYYCNKQVTGAERFQGHGAYYWGQGTQVTVSS	high polyreactivity
QVQLVESGGGLVQTGGSLRLSCAASGRIFKHYAMGWYTHAPGKERELVAAITNGGRTNYSDSVKGRFTISRDNAKNTVYLQMNSLKPEDTAVSYCARDRKIAYLSEGFDYWGQGTQVSVSS	low polyreactivity
QVQLVESGGGLVQEGGSLRLTCAASGIIFTINAMGWYRQAPGKERELVAAIYWGTGTTYYADSVKGRFTISRDNAKNTVYLQMNSLKPEDTAVYYCAADGYDTYGYWGQGTQVTVSS	low polyreactivity
QVQLVESGGGLVQAGGSLRLSCAASGFIFGANAMGWYRPAPGKERELVASINGSGGSTFYADSVKGRFTISRDNAKNTVYLQMNSLNPEDTAVYYCAAPCFCWFTTGGYYYWGQGTQVTVSS	low polyreactivity

Sequence	polyreactivity (PSR sort gate)
QDQLVESRGGLVQAGGSLRLTCAASGSTFVIYDMGWYSQATGKERELVAVITIIGGSTYYADSVKGRFTISRDNAKNTVYLQMNSLKPEDTAVYYCNANVIQDYPNYDYWGQGTQVSVSS	low polyreactivity
QVHLVESGGCLVQAGCSLRLSCAASGRTFGWNVMGWYRQAPGTERELVAAISGSGGSTYYADSVKGRFTISRDNAKNTVYLQMNSLKPEDTAVYYCAALYGPGREYDYWGQGTQVTVSS	low polyreactivity
QVQLVESGGGLVQAGGSLRLSCAASGRTFRYYAMAWYRQAPGKERELVAAIRSGGITNYADSVKGRFTISLDNAKYTVYLQMNRLKPEDTAVYYCAQAIRGHYWGQGTQVTVSS	high polyreactivity
QVQLVESGGGLVQAGGSLRLSCAASGITFVFYAMGWYRQAPGKERELVAAISWSGGITYYADSVKGRFTISRDNAKNTVYLQMNSLKPEDTAVYYCAARISWEKYQAGYDYWGQGTQVTVSS	low polyreactivity
QVQLVESGGGLVQAGRSLRLSCAASGRTFGTNAMGWYRQAPGKERELVAAISRRGGSTYYADSVKGRFTISRDNAKNTVYLQMNCLKPEDTAVYYCASDFWYYQYPYGGGGYWGQGTQVTVSS	low polyreactivity
QVQLVESGGGLVQAGGSLRLSCAASGSTFFEYTMGWYRRAPGKEREFVADIRGRDGSTSYADSVKGRFTISRDNAKNTVYLQMNSLKPEDTAVYYCATEYFPQYQSTGWYDYWGQGTQVTVSS	low polyreactivity
QVQLVESGGGLVQAGGSLRLSCAASGRTFYRNAMGWSRQAPGKEREFVAVISVSGGSTYYADSVKGRFTISRDNAKNTVYLQMNSLKPEDTAVYYCAKRGPVRKTAYDYWGQGTQVTVSS	low polyreactivity
QVQLVESGGGLVQAGRILRLSCAASGIILGRYAMGWYRQAHGKERELVAAITASGGRTYYADSVKGRFTISRDNAKNTVYLQMNSLKPEDTAVYYCNTVYWGYKSHYDYWGQGTQVTVSS	high polyreactivity
QVQLVESGGGLVQAGGSLRLSCAASGRIFSIYAMGWYRQAPGKERELVASINSGDSTYYADSVKGRFTISRDNAKNTVYLQMNSLKPEDTAVYYCAATLVTVPLYRFDYWGQGTQVTVSS	low polyreactivity
QVQLVESGGGLVQAGGSLRLSCAASGSIFGSYAMGWYRQAPGKERELVAAISWRGGRTYYADSVKGRFTISRDNAKNTVYLQMNSLKPEDTAVYYCAAERHARSSYEYWGQGTQVTVSS	low polyreactivity
QLQLVESGGGLVQAGGSLRLSCAASVRTFQNYAMGWYRQAPGKEREFVAAITWRVGTTYYADSVKGRFTISRDNAKNTVYLQMNSLKPEDTAVYYCAARSRTVRYDYWGQGSQVTVSS	high polyreactivity
QVQLVESGGGLVQAGGSLRLSCAASGSTFAANAMGWYRPAPGKERELDAAITSSGGSTYYADSVKGRFTISRDNAKNTVYLQMISLKPEDTAVYYCNKDIERYVRIYDSWGQGTQVTVSS	low polyreactivity
QVQLVESGGGLVQAGGSLRLSCAASGFIFYDYAMGWYRQAPGKERELVAAISSGGSTNYADSVKGRFTISRDNAKNSVYLQMNSLKPEDTAVYYCAADDRSYATWKRDYDYWGQGTQVTVSS	low polyreactivity
QVQLVESGGGLVQAGGSLRLSCAASGFTYYHNAMGWYRQAPGKERELVAAISSSGDSTYYADSVKGRFTISRDNAKNTVYLQMKSLKPEDTAVYYCNDYFYYLSLYYYYWFNYDYWGQGTQVTVSS	low polyreactivity
QVQLVESGGGLVQAGGSLRLSCAASGSTFEYNSMGWYRQAPGKERELVGSSTNYADSVKGRFTISRDNAKNTVYLQMNSLLPEYTAVYYCAREQGVNRNHDYWGQGTQVTVSS	low polyreactivity
QVQLVESGGGLVQAGGSLRLSCAASGRTFYRNDMGWYRQEPGKEREFVAAITSSGGTTYADSVKGRFTISRDNAKNTVYLQMNSLKPEDTAVYYCNTVLYPYWQWDYEFDYWGQGTQVTVSS	low polyreactivity
QVQLVESGGGLVQAGGSLRLSCAASGSIFGYYAMGWYRQAPGKERELVAAINRDGGSTYYADSVKGRFTISRDNAKNTVYLQMNSLKPEDTAVYYCAAVVRRPGPGRMDYWGQGTQVTVSS	low polyreactivity
QFQLVESGGGLVQAGGSLRLSCAASGIILAYYAMGWYRKEPGKERELVSSINRSGGSTYYADSVKGRFTISRDNAKNTVYLQMISLKPEYTAVYYCAATNRGVGQRSYRYYYWGQGTQVSVSS	high polyreactivity
QVQLGESGGGLVQAGGSLRLSCAASGSIFGGNTKGWYRQAPGKERELVAAINGGVTTNYADSVKGRFTISRDNAKNTVYLQMNSLKPEDTAVYYCNAVDFGPVVLRLYYWGQGTQVTVSS	low polyreactivity
QVQLVESGGGLVQAGGSLRLSCAASGRIFYGNVIGWYRQAPGKERELVADIYYDGGSTYYADSVKGRFTISRDNAKNTVYLQMNSLKPEDTAVYYCNKREVFIYGTTYDYWGQGTQVTVSS	low polyreactivity
QVQLVESGGRLVPAGGSLRLTCAASGIISVYYVMGWYRPAPGKERELVAAINRSGGNTYYADSVKGRFTISRDNAKNTVYLQMNSLKPEDTAVYYCKASLYFYRYGHDDESDYWGQGTQVTVSS	high polyreactivity
